Assay results reported in US20210388087A1 (Chugai, published 2021).
Residue numbers refer to the chain shown, from its start.

B1: CE115HA000/GLS3000 G89A (antibody, IgG1, name in Kabat numbering, V domains shown)
VH: QVQLVESGGGVVQPGRSLRLSCAASGFTFSNAWMHWVRQAPGKGLEWVAQIKAKSNNYATYYAESVKGRFTISRDDSKNSLYLQMNSLKTEDTAVYYCRYVHYGAYYGVDAWGQGTTVTVSS
VL: DIVMTQSPLSLPVTPGEPASISCRSSQSLVHSNRNTYLHWYQQKPGQAPRLLIYKVSNRFSGVPDRFSGSGSGTDFTLKISRVEAEDVGVYYCAQGTQVPYTFGQGTKLEIK
notes: one-arm IgG1
B2: CE115HA000/GLS3000 G89V (antibody, IgG1, name in Kabat numbering, V domains shown)
VH: B1 VH
VL: B1 VL with A94V
notes: one-arm IgG1
B3: CE115HA000/GLS3000 G89Q (antibody, IgG1, name in Kabat numbering, V domains shown)
VH: B1 VH
VL: B1 VL with A94Q
notes: one-arm IgG1
B4: CE115HA000/GLS3000 H27dT (antibody, IgG1, name in Kabat numbering, V domains shown)
VH: B1 VH
VL: B1 VL with H31T, A94G
notes: one-arm IgG1
B5: CE115HA000/GLS3000 H34E (antibody, IgG1, name in Kabat numbering, V domains shown)
VH: B1 VH
VL: B1 VL with H39E, A94G
notes: one-arm IgG1
B6: CE115HA000/GLS3000 G91P (antibody, IgG1, name in Kabat numbering, V domains shown)
VH: B1 VH
VL: B1 VL with A94G, G96P
notes: one-arm IgG1
B7: CE115HA000/GLS3000 G89F (antibody, IgG1, name in Kabat numbering, V domains shown)
VH: B1 VH
VL: B1 VL with A94F
notes: one-arm IgG1
B8: CE115HA000/GLS3000 G89P (antibody, IgG1, name in Kabat numbering, V domains shown)
VH: B1 VH
VL: B1 VL with A94P
notes: one-arm IgG1
B9: CE115HA000/GLS3000 H27dM (antibody, IgG1, name in Kabat numbering, V domains shown)
VH: B1 VH
VL: B1 VL with H31M, A94G
notes: one-arm IgG1
B10: CE115HA000/GLS3000 G91Y (antibody, IgG1, name in Kabat numbering, V domains shown)
VH: B1 VH
VL: B1 VL with A94G, G96Y
notes: one-arm IgG1
B11: CE115HA000/GLS3000 G89R (antibody, IgG1, name in Kabat numbering, V domains shown)
VH: B1 VH
VL: B1 VL with A94R
notes: one-arm IgG1
B12: CE115HA000/GLS3000 H27dP (antibody, IgG1, name in Kabat numbering, V domains shown)
VH: B1 VH
VL: B1 VL with H31P, A94G
notes: one-arm IgG1
B13: CE115HA000/GLS3000 H34I (antibody, IgG1, name in Kabat numbering, V domains shown)
VH: B1 VH
VL: B1 VL with H39I, A94G
notes: one-arm IgG1
B14: CE115HA000/GLS3000 H27dS (antibody, IgG1, name in Kabat numbering, V domains shown)
VH: B1 VH
VL: B1 VL with H31S, A94G
notes: one-arm IgG1
B15: CE115HA000/GLS3000 H27dE (antibody, IgG1, name in Kabat numbering, V domains shown)
VH: B1 VH
VL: B1 VL with H31E, A94G
notes: one-arm IgG1
B16: CE115HA000/GLS3000 G91E (antibody, IgG1, name in Kabat numbering, V domains shown)
VH: B1 VH
VL: B1 VL with A94G, G96E
notes: one-arm IgG1
B17: CE115HA000/GLS3000 G89T (antibody, IgG1, name in Kabat numbering, V domains shown)
VH: B1 VH
VL: B1 VL with A94T
notes: one-arm IgG1
B18: CE115HA000/GLS3000 G89M (antibody, IgG1, name in Kabat numbering, V domains shown)
VH: B1 VH
VL: B1 VL with A94M
notes: one-arm IgG1
B19: CE115HA000/GLS3000 H27dF (antibody, IgG1, name in Kabat numbering, V domains shown)
VH: B1 VH
VL: B1 VL with H31F, A94G
notes: one-arm IgG1
B20: CE115HA000/GLS3000 G89W (antibody, IgG1, name in Kabat numbering, V domains shown)
VH: B1 VH
VL: B1 VL with A94W
notes: one-arm IgG1
B21: CE115HA000/GLS3000 H27dY (antibody, IgG1, name in Kabat numbering, V domains shown)
VH: B1 VH
VL: B1 VL with H31Y, A94G
notes: one-arm IgG1
B22: CE115HA000/GLS3000 G91A (antibody, IgG1, name in Kabat numbering, V domains shown)
VH: B1 VH
VL: B1 VL with A94G, G96A
notes: one-arm IgG1
B23: CE115HA000/GLS3000 H34D (antibody, IgG1, name in Kabat numbering, V domains shown)
VH: B1 VH
VL: B1 VL with H39D, A94G
notes: one-arm IgG1
B24: CE115HA000/GLS3000 G89H (antibody, IgG1, name in Kabat numbering, V domains shown)
VH: B1 VH
VL: B1 VL with A94H
notes: one-arm IgG1
B25: CE115HA000/GLS3000 G89N (antibody, IgG1, name in Kabat numbering, V domains shown)
VH: B1 VH
VL: B1 VL with A94N
notes: one-arm IgG1
B26: CE115HA000/GLS3000 H34F (antibody, IgG1, name in Kabat numbering, V domains shown)
VH: B1 VH
VL: B1 VL with H39F, A94G
notes: one-arm IgG1
B27: CE115HA000/GLS3000 H27dL (antibody, IgG1, name in Kabat numbering, V domains shown)
VH: B1 VH
VL: B1 VL with H31L, A94G
notes: one-arm IgG1
B28: CE115HA000/GLS3000 H27dA (antibody, IgG1, name in Kabat numbering, V domains shown)
VH: B1 VH
VL: B1 VL with H31A, A94G
notes: one-arm IgG1
B29: CE115HA000/GLS3000 H27dQ (antibody, IgG1, name in Kabat numbering, V domains shown)
VH: B1 VH
VL: B1 VL with H31Q, A94G
notes: one-arm IgG1
B30: CE115HA000/GLS3000 H27dR (antibody, IgG1, name in Kabat numbering, V domains shown)
VH: B1 VH
VL: B1 VL with H31R, A94G
notes: one-arm IgG1
B31: CE115HA000/GLS3000 H27dV (antibody, IgG1, name in Kabat numbering, V domains shown)
VH: B1 VH
VL: B1 VL with H31V, A94G
notes: one-arm IgG1
B32: CE115HA000/GLS3000 G89E (antibody, IgG1, name in Kabat numbering, V domains shown)
VH: B1 VH
VL: B1 VL with A94E
notes: one-arm IgG1
B33: CE115HA000/GLS3000 H27dW (antibody, IgG1, name in Kabat numbering, V domains shown)
VH: B1 VH
VL: B1 VL with H31W, A94G
notes: one-arm IgG1
B34: CE115HA000/GLS3000 G89D (antibody, IgG1, name in Kabat numbering, V domains shown)
VH: B1 VH
VL: B1 VL with A94D
notes: one-arm IgG1
B35: CE115HA000/GLS3000 G91D (antibody, IgG1, name in Kabat numbering, V domains shown)
VH: B1 VH
VL: B1 VL with A94G, G96D
notes: one-arm IgG1
B36: CE115HA000/GLS3000 G89I (antibody, IgG1, name in Kabat numbering, V domains shown)
VH: B1 VH
VL: B1 VL with A94I
notes: one-arm IgG1
B37: CE115HA000/GLS3000 H27dG (antibody, IgG1, name in Kabat numbering, V domains shown)
VH: B1 VH
VL: B1 VL with H31G, A94G
notes: one-arm IgG1
B38: CE115HA000/GLS3000 H27dN (antibody, IgG1, name in Kabat numbering, V domains shown)
VH: B1 VH
VL: B1 VL with H31N, A94G
notes: one-arm IgG1
B39: CE115HA000/GLS3000 G89L (antibody, IgG1, name in Kabat numbering, V domains shown)
VH: B1 VH
VL: B1 VL with A94L
notes: one-arm IgG1
B40: CE115HA000/GLS3000 G89Y (antibody, IgG1, name in Kabat numbering, V domains shown)
VH: B1 VH
VL: B1 VL with A94Y
notes: one-arm IgG1
B41: CE115HA000/GLS3000 G89K (antibody, IgG1, name in Kabat numbering, V domains shown)
VH: B1 VH
VL: B1 VL with A94K
notes: one-arm IgG1
B42: CE115HA000/GLS3000 H27dK (antibody, IgG1, name in Kabat numbering, V domains shown)
VH: B1 VH
VL: B1 VL with H31K, A94G
notes: one-arm IgG1
B43: CE115HA000/GLS3000 H34K (antibody, IgG1, name in Kabat numbering, V domains shown)
VH: B1 VH
VL: B1 VL with H39K, A94G
notes: one-arm IgG1
B44: CE115HA000/GLS3000 H34G (antibody, IgG1, name in Kabat numbering, V domains shown)
VH: B1 VH
VL: B1 VL with H39G, A94G
notes: one-arm IgG1
B45: CE115HA000/GLS3000 G91T (antibody, IgG1, name in Kabat numbering, V domains shown)
VH: B1 VH
VL: B1 VL with A94G, G96T
notes: one-arm IgG1
B46: CE115HA000/GLS3000 H34A (antibody, IgG1, name in Kabat numbering, V domains shown)
VH: B1 VH
VL: B1 VL with H39A, A94G
notes: one-arm IgG1
B47: CE115HA000/GLS3000 H27dI (antibody, IgG1, name in Kabat numbering, V domains shown)
VH: B1 VH
VL: B1 VL with H31I, A94G
notes: one-arm IgG1

Each binder was assayed against T1, CD3 epsilon homodimer protein (UniProt P07766 23-126) (assay: SPR, antibody over immobilised CD3e homodimer;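 further: SPR at 25 °C with CD3 epsilon homodimer amine-coupled to a CM4 sensor chip and antibody flowed over as analyte in HBS-EP+ running buffer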).
T1 construct: also called CD3 (CD3 epsilon)
T1 sequence (P07766 23-126): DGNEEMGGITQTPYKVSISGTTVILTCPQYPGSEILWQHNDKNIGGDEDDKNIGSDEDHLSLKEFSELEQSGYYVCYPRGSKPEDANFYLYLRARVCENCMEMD

Row | Binder | KD ratio to GLS3000
1 | B1 | 1.1
2 | B2 | 1.4
3 | B3 | 2.11
4 | B4 | 13000
5 | B5 | 8.03
6 | B6 | 23.1
7 | B7 | 3.34
8 | B8 | 1.8
9 | B9 | 3.43
10 | B10 | 33.8
11 | B11 | 4130
12 | B12 | 9.21
13 | B13 | 0.89
14 | B14 | 3.05
15 | B15 | 42.3
16 | B16 | 48.5
17 | B17 | 1.1
18 | B18 | 1.96
19 | B19 | 2.05
20 | B20 | 2.2
21 | B21 | 1.98
22 | B22 | 28.1
23 | B23 | 2100
24 | B24 | 1.44

Row | Binder | KD ratio to GLS3000
25 | B25 | 1.2
26 | B26 | 3.5
27 | B27 | 3.37
28 | B28 | 2.57
29 | B29 | 7.48
30 | B30 | 2.35
31 | B31 | 354
32 | B32 | 34.6
33 | B33 | 1.86
34 | B34 | 1.96
35 | B35 | 44.8
36 | B36 | 1.11
37 | B37 | 3.51
38 | B38 | 3.43
39 | B39 | 2.38
40 | B40 | 1.12
41 | B41 | 1.8
42 | B42 | 3.8
43 | B43 | 4.1
44 | B44 | 1.08
45 | B45 | 39.9
46 | B46 | 1.18
47 | B47 | 7.77
